Data: the supplement of paper PMC9112550, “Optimization of the antimicrobial peptide Bac7 by deep mutational scanning” (BMC Biology, 2022)

Test system: Escherichia coli TOP10
Assay: shrunken log2 fold change of peptide-encoding DNA abundance (4.5 h post-induction vs induction); higher = less antimicrobial activity (less host growth inhibition)
Conditions: time post-induction: 4.5 h; library: site-saturation at positions 5, 18, 19, 20
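Further: peptides expressed intracellularly from a pBAD plasmid library in pooled LB shake-flask culture, induced with 0.3% L-arabinose, DNA abundance read by NGS, three biological replicates, DESeq2 with apeglm shrinkage.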

Sequence | shrunken log2 fold change
RRIRPRPPRLPRPRPRPTSMPRP | -0.0129
RRIRNRPPRLPRPRPRPPALPRP | 0.132
RRIRGRPPRLPRPRPRPPTHPRP | 0.617
RRIRSRPPRLPRPRPRPNGHPRP | -0.0925
RRIRKRPPRLPRPRPRPGWFPRP | 0.139
RRIRCRPPRLPRPRPRPRYNPRP | -0.465
RRIRHRPPRLPRPRPRPVQSPRP | 0.0377
RRIRRRPPRLPRPRPRPTEQPRP | -0.0468
RRIRCRPPRLPRPRPRPWLKPRP | -0.133
RRIRMRPPRLPRPRPRPNYTPRP | -0.434
RRIRFRPPRLPRPRPRPVTLPRP | 0.347
RRIRWRPPRLPRPRPRPCKRPRP | 0.118
RRIRTRPPRLPRPRPRPNKCPRP | -0.314
RRIRYRPPRLPRPRPRPYERPRP | -0.00804
RRIRNRPPRLPRPRPRPKSIPRP | -0.569
RRIRWRPPRLPRPRPRPKAGPRP | 0.538
RRIRQRPPRLPRPRPRPYDYPRP | -0.133
RRIRSRPPRLPRPRPRPYCDPRP | -0.225
RRIRGRPPRLPRPRPRPGLHPRP | 0.682
RRIRPRPPRLPRPRPRPQDIPRP | -0.0806
RRIRARPPRLPRPRPRPTAEPRP | 1.3
RRIRTRPPRLPRPRPRPWYDPRP | 0.0754
RRIRPRPPRLPRPRPRPKTHPRP | -0.0419
RRIRCRPPRLPRPRPRPYSCPRP | -0.833
RRIRTRPPRLPRPRPRPWRKPRP | -0.262

Sequence | shrunken log2 fold change
RRIRCRPPRLPRPRPRPLLIPRP | -0.4
RRIRRRPPRLPRPRPRPQPGPRP | 0.264
RRIRRRPPRLPRPRPRPHYRPRP | -0.306
RRIRRRPPRLPRPRPRPLHSPRP | 0.357
RRIRHRPPRLPRPRPRPTSIPRP | 0.0484
RRIRARPPRLPRPRPRPFIWPRP | 0.00679
RRIRERPPRLPRPRPRPCGTPRP | -0.00758
RRIRERPPRLPRPRPRPPISPRP | 0.0892
RRIRRRPPRLPRPRPRPGVMPRP | 0.245
RRIRYRPPRLPRPRPRPMPCPRP | -0.0166
RRIRTRPPRLPRPRPRPPGCPRP | 0.528
RRIRYRPPRLPRPRPRPEDHPRP | -0.581
RRIRLRPPRLPRPRPRPMHAPRP | 0.12
RRIRDRPPRLPRPRPRPSREPRP | -0.0011
RRIRSRPPRLPRPRPRPCYHPRP | -0.297
RRIRIRPPRLPRPRPRPFVRPRP | -0.0158
RRIRTRPPRLPRPRPRPYRLPRP | -0.0268
RRIRMRPPRLPRPRPRPIKHPRP | -0.0825
RRIRGRPPRLPRPRPRPNNMPRP | -0.317
RRIRMRPPRLPRPRPRPSKSPRP | 0.166
RRIRKRPPRLPRPRPRPYYNPRP | -0.197
RRIRFRPPRLPRPRPRPQKEPRP | 0.172
RRIRPRPPRLPRPRPRPNCPPRP | -0.0126
RRIRKRPPRLPRPRPRPTGCPRP | 0.0439
RRIRCRPPRLPRPRPRPDLHPRP | -0.252

Sequence | shrunken log2 fold change
RRIRDRPPRLPRPRPRPGNCPRP | 0.153
RRIRTRPPRLPRPRPRPDNIPRP | -0.38
RRIRARPPRLPRPRPRPYMPPRP | -0.829
RRIRKRPPRLPRPRPRPPCPPRP | 0.399
RRIRQRPPRLPRPRPRPGPSPRP | 0.242
RRIRPRPPRLPRPRPRPHGRPRP | -0.0223
RRIRLRPPRLPRPRPRPLGCPRP | 0.0856
RRIRWRPPRLPRPRPRPRDRPRP | 0.909
RRIRLRPPRLPRPRPRPSCTPRP | -0.501
RRIRFRPPRLPRPRPRPRSYPRP | -0.268
RRIRWRPPRLPRPRPRPKTNPRP | 0.239
RRIRHRPPRLPRPRPRPIERPRP | 0.00211
RRIRVRPPRLPRPRPRPVPAPRP | 0.391
RRIRNRPPRLPRPRPRPSVIPRP | -0.781
RRIRMRPPRLPRPRPRPMVCPRP | 0.204
RRIRARPPRLPRPRPRPGWIPRP | 0.161
RRIRFRPPRLPRPRPRPIMLPRP | -0.205
RRIRARPPRLPRPRPRPSFQPRP | -0.0185
RRIRKRPPRLPRPRPRPWTLPRP | 0.00115
RRIRFRPPRLPRPRPRPSPCPRP | -0.508
RRIRQRPPRLPRPRPRPAGIPRP | 0.0977
RRIRKRPPRLPRPRPRPQASPRP | 0.353
RRIRHRPPRLPRPRPRPMRQPRP | 0.143
RRIRDRPPRLPRPRPRPCRAPRP | -0.221
RRIRCRPPRLPRPRPRPTPAPRP | 0.933

Sequence | shrunken log2 fold change
RRIRRRPPRLPRPRPRPVFIPRP | -0.0708
RRIRMRPPRLPRPRPRPAMHPRP | 2.86
RRIRCRPPRLPRPRPRPHCMPRP | -0.517
RRIRWRPPRLPRPRPRPPLSPRP | 0.271
RRIRIRPPRLPRPRPRPPTRPRP | 0.251
RRIRKRPPRLPRPRPRPRHYPRP | -0.0867
RRIRYRPPRLPRPRPRPFLHPRP | -0.786
RRIRERPPRLPRPRPRPKKEPRP | -0.0367
RRIRLRPPRLPRPRPRPVTTPRP | -0.216
RRIRNRPPRLPRPRPRPLHLPRP | -0.59
RRIRGRPPRLPRPRPRPVCQPRP | 0.664
RRIRVRPPRLPRPRPRPMQQPRP | 0.108
RRIRARPPRLPRPRPRPWMTPRP | -0.141
RRIRSRPPRLPRPRPRPWSAPRP | -0.027
RRIRLRPPRLPRPRPRPDLNPRP | -1.09
RRIRARPPRLPRPRPRPGVDPRP | 0.664
RRIRDRPPRLPRPRPRPDIAPRP | 0.209
RRIRNRPPRLPRPRPRPMPYPRP | 0.0291
RRIRFRPPRLPRPRPRPRQWPRP | 0.39
RRIRCRPPRLPRPRPRPDNKPRP | -0.795
RRIRVRPPRLPRPRPRPKKCPRP | 0.0567
RRIRKRPPRLPRPRPRPSFQPRP | 0.0564
RRIRGRPPRLPRPRPRPWDNPRP | -0.0364
RRIRARPPRLPRPRPRPAARPRP | 0.828
RRIRDRPPRLPRPRPRPMGDPRP | 0.25

Sequence | shrunken log2 fold change
RRIRHRPPRLPRPRPRPDTCPRP | -0.287
RRIRYRPPRLPRPRPRPCLRPRP | -0.286
RRIRYRPPRLPRPRPRPWNWPRP | -0.252
RRIRKRPPRLPRPRPRPPARPRP | 1.16
RRIRKRPPRLPRPRPRPPEFPRP | 0.0984
RRIRCRPPRLPRPRPRPFCGPRP | 0.011
RRIRLRPPRLPRPRPRPHGWPRP | 0.0568
RRIRMRPPRLPRPRPRPWGPPRP | 0.106
RRIRMRPPRLPRPRPRPTHMPRP | 0.362
RRIRCRPPRLPRPRPRPDPDPRP | -0.141
RRIRERPPRLPRPRPRPFVPPRP | -0.507
RRIRGRPPRLPRPRPRPEQFPRP | 0.846
RRIRWRPPRLPRPRPRPSHHPRP | -0.3
RRIRLRPPRLPRPRPRPMFNPRP | -0.524
RRIRRRPPRLPRPRPRPDTFPRP | 0.025
RRIRERPPRLPRPRPRPCQFPRP | -0.131
RRIRQRPPRLPRPRPRPSAHPRP | -0.075
RRIRMRPPRLPRPRPRPQGKPRP | -0.0118
RRIRWRPPRLPRPRPRPVIFPRP | 1.32
RRIRKRPPRLPRPRPRPSMHPRP | 0.401
RRIRKRPPRLPRPRPRPGWEPRP | -0.00146
RRIRLRPPRLPRPRPRPIIEPRP | -0.171
RRIRYRPPRLPRPRPRPGMIPRP | -0.252
RRIRKRPPRLPRPRPRPYPWPRP | -0.4
RRIRHRPPRLPRPRPRPTSKPRP | -0.125
